“Also recorded” adds a separate entry of the source. Where two headings read alike, the source gives them in different places.
How the values were obtained:
[1] = system: ovalbumin challenged mice; settings: previously demonstrated, Riffo-Vasquez et al. 2004; cited from earlier work
[2] = system: ovalbumin challenged mice; assay type: in vivo; settings: 24 h after repeated ovalbumin challenge, 10 μg intra-tracheal; for bronchial hyper-responsiveness to methacholine: FIG. 2; for recruitment of eosinophils to the airways (airways inflammation): percentage of eosinophils vs ovalbumin alone, FIG. 1; for levels of cytokines in BAL fluid (cytokine release in the lung): FIG. 3
Procedure: Allergic inflammation in the lung is induced by 2 intraperitoneal injections of 10 μg of ovalbumin (OVA) in 1 mg of alum with 7 days interval between them. Control animals receive alum only. On day 14, all animals are exposed to an aerosol of OVA for 25 minutes, once a day for 3 consecutive days. All measurements are performed 24 h after the last antigen challenge. […]

[3] = system: spleen cells of C57Bl/6 mice; assay type: cell-based, C57BI/6 mice; settings: FIG. 8; for IL-12 release compared with Cpn60.1 at lower concentrations: lower concentrations (0.001-0.1 μg/ml)
[4] = system: ovalbumin challenged mice; assay type: in vivo; settings: for levels of total IgE circulating in serum: 0.005 μg/mouse, FIG. 13; for recruitment of total cells to the airways / recruitment of eosinophils to the airways: intra-nasal; for recruitment of total cells to the airways: Cpn60.1 1 μg, FIG. 10; for recruitment of eosinophils to the airways: Cpn60.1 0.1 and 1 μg, peptide 4 0.005 μg, FIG. 11
[5] = system: bone marrow dendritic cells; assay: LPS-induced IL12 production by dendritic cells after chaperonin pre-incubation; assay type: cell-based, Balb/c mice; settings: pre-incubation 24 hours, then LPS (10 ng/ml) further 24 h; FIG. 6
Procedure: (§1) Bone marrow cells from Balb/c mice were collected and cultured for 6 days in complete Dulbecco's Modified Eagle Medium containing 8 ng/ml of mouse GM-CSF. On day 6 of culture, the cells were collected, re-plated for 1 hour for removal of adherent cells, washed and plated at […] in 6-wells plates for analysis of surface markers expression and transference experiments and at 10^5 cells/well in 96-wells plate for cytokine measurements. In other experiments, cells were incubated at 10^6 cells/well for 24 h with the chaperonins and then another further 24 h with LPS (10 ng/ml).
Pre-incubation of DC's with Cpn60.1 but not Cpn10 for 24 hours inhibited IL12 production induced by LPS (FIG. 6).

[6] = system: co-culture of dendritic cells and RD11.10 T cells; assay: IL4 release in dendritic cell / T cell co-culture; assay type: cell-based, mice; settings: DC pre-treated 10 μg/ml 24 h, FIG. 7
Procedure: as §1
DC pre-treated with Cpn60.1 (10 μg/ml) or Cpn10 (10 μg/ml) for 24 h suppressed the release of IL4 from RD11.10 T cells in a DC/T cell co-culture. After 6 days of culture, cells were stimulated with anti-CD3 and anti-CD28 for further 24 hours and supernatants collected. IL5 and IL10 were not detected in this culture (FIG. 7).

[7] = system: bone marrow dendritic cells; assay: IL-12 production by bone marrow dendritic cells pulsed with chaperonins; assay type: cell-based, Balb/c mice; settings: 48 h; Cpn60.1 0.1-30 μg/ml, Cpn10 10 μg/ml; FIG. 5
Procedure: as §1

[8] = system: human peripheral blood monocytes; assay: Human monocyte assay, TNF-alpha secretion (ELISA); assay type: cell-based; settings: for LPS-induced TNF-alpha secretion: pre-treatment 1 hour, then LPS (1 ng/ml) 24 hours, FIGS. 18, 20
Procedure: We have established a human monocyte assay to compare the efficacy of Cpn60.1 and various peptide sequences of this protein. Human monocytes were obtained by density-dependent centrifugation from peripheral venus blood from healthy volunteers. Monocytes were then isolated and purified with cells adjusted to a density of 2×10^6 cells/ml which were incubated for 1 hour 30 minutes. The plates were then washed twice with Hanks solution. 0.9 ml of RPMI medium was then added to each well followed by polymyxin-B (5 μg/ml). 30 minutes later, 0.1 ml of Cpn at 0.0001-1000 ng/ml or peptides were added to the wells. Cells were then incubated at 37° C., 5% CO2 for 1 hour. The medium was removed and cells washed. 0.9 ml of medium was added to each well followed by 0.1 ml of LPS (1 ng/ml) and left to incubate for 24 hours. Supernatant was taken from each well and frozen for Enzyme Linked Immunosorbent Assay (ELISA).

[9] = system: OVA-sensitized recipient mice; assay: Transfer of chaperonin pre-treated dendritic cells to OVA-sensitized recipient mice; assay type: in vivo; settings: dendritic cells pre-treated in vitro 24 h with 10 μg/ml, given topically to lungs; FIG. 4
Procedure: as §1
The DC's were pre-treated in vitro for 24 h with Cpn10 (10 μg/ml) and then administrated topically to the lungs of OVA-sensitized recipient mice.

LPS-treated mice = assay: LPS-induced neutrophil recruitment to the lung (non-allergic inflammation); assay type: in vivo, Female Balb/c mice
Procedure: Female Balb/c mice were pre-treated intranasally with Cpn60.1 (1 μg/ml) for 3 days in the absence or following pre-treatment with polymyxin B (5 μg/ml) to rule out any effect of LPS contamination. 30 minutes after the last dose of Cpn60.1, mice were treated with LPS (1 μg/ml). Neutrophil influx and TNF-alpha release in the lungs were determined by bronchoalveolar lavage 24 hours later.

UV-treated rats = assay: Ultra Violet Burn-induced hyperalgesia; assay type: in vivo, male Wistar rats; settings: compared to the group treated with ibuprofen; FIGS. 16 and 17
Procedure: (§2) The effect of Cpn60.1 has been investigated in 2 models of pain, Complete Freund's Adjuvant (CFA)-induced hyperalgesia and Ultra Violet Burn-induced hyperalgesia. Mechanical hyperalgesia was measured using Von Frey filaments applied with increasing force to the hind paw. Thermal hyperalgesia was measured using the time taken to withdraw the hind paw from a heat source. Cpn60.1 (50 & 500 μg/kg) was chronically administered to male Wistar rats (200 g) subcutaneously for 7 days. Every alternate day behavioural responses to mechanical and thermal allodynia were recorded. After baseline recordings, CFA was injected in to the hind paw to induce hyperalgesia and behavioural tests were performed. […] Another model of hyperalgesia was tested, this time using UV burn to induce allodynia. Again, Cpn60.1 had little effect at inhibiting hyperalgesia compared to the group treated with ibuprofen (FIGS. 16 and 17).

CFA-treated rats = assay: Complete Freund's Adjuvant (CFA)-induced hyperalgesia; assay type: in vivo, male Wistar rats; settings: 50 & 500 μg/kg subcutaneously for 7 days; compared to ibuprofen 100 mg/kg; FIGS. 14 and 15
Procedure: as §2

[10] = system: spleen cells from TLR2KO mice; assay: IL-12 release in spleen cells from TLR2KO mice; assay type: cell-based; settings: FIG. 9
[11] = system: spleen cells collected from TLR4KO mice; assay: IL-12 release in spleen cells from TLR4KO mice; assay type: cell-based; settings: FIG. 9
[12] = 24 h after repeated ovalbumin challenge
[13] = 24 h after repeated ovalbumin challenge, listed as Cpn60.1-peptide 4

Cpn60.2: M. tuberculosis chaperonin polypeptide chaperonin 60.2
lung inflammation in a murine model of asthma [1]: not
bronchial hyper-responsiveness to methacholine [2]: not
recruitment of eosinophils to the airways (airways inflammation) [2]: not

DGSVVVNKVSELPAGHGLNVNTLSYGDLAAD (listed as Mycobacterium tuberculosis) [Peptide 4]
IL-12 release compared with Cpn60.1 at higher concentration ([3]; higher concentration (0.1-30 μg/ml), polymixin B): reduced effect in comparison to Cpn60.1
IL-12 release compared with Cpn60.1 at lower concentrations ([3]; polymixin B): more effective than Cpn60.1
levels of total IgE circulating in serum [4, 12]: affected total IgE production
levels of total IgE circulating in serum [4, 13]: significantly inhibited
levels of IL-5 in BAL fluid ([4]; 24 h after repeated ovalbumin challenge, FIG. 12): not caused by an interference with the production of IL-5
levels of IL-5 in BAL fluid ([4]; 24 h after repeated ovalbumin challenge, FIG. 12, listed as Cpn60.1-peptide 4): not significantly inhibited
recruitment of total cells to the airways [4, 12]: inhibited
recruitment of eosinophils to the airways [4, 12]: significant reduction
recruitment of eosinophils to the airways [4, 13]: inhibited

LTTETVVVDKPAKAEDHDHHHGHAH (listed as Mycobacterium tuberculosis) [Peptide 6]
IL-12 release compared with Cpn60.1 at lower concentrations ([3]; polymixin B): less potent effect

B1: Cpn10: M. tuberculosis chaperonin polypeptide chaperonin 10 (protein, UniProt P9WPE5 2-100, looked up)
Co-chaperonin GroES: AKVNIKPLEDKILVQANEAETTTASGLVIPDTAKEKPQEGTVVAVGPGRWDEDGEKRIPLDVAEGDTVIYSKYGGTEIKYNGEEYLILSARDVLAVVSK
IL12 production induced by LPS [5]: not
levels of IL4 in DC/T cell co-culture ([6]; 6 days co-culture, anti-CD3 and anti-CD28 24 hours): suppressed
IL12 production by dendritic cells [7]: induced low levels; also recorded: induced lower levels of IL-12 release in comparison to LPS and Cpn60.1
lung inflammation in a murine model of asthma [1]: suppressed
LPS-induced TNF-alpha secretion [8]: does not suppress; also recorded: failed to inhibit
eosinophils migration to the lung [9]: significantly inhibited
bronchial hyper-responsiveness to methacholine [2]: reduced; also recorded: significantly inhibit
levels of cytokines in BAL fluid (cytokine release in the lung) [2]: significantly inhibit
recruitment of eosinophils to the airways (airways inflammation) [2]: inhibited; also recorded: significantly inhibit

B2: Cpn60.1: chaperonin protein Chaperonin 60.1 of Mycobacterium tuberculosis, amino acid sequence shown in FIG. 25 (protein)
chain: MSKLIEYDETARRAMEVGMDKLADTVRVTLGPRGRHVVLAKAFGGPTVTNDGVTVAREIELEDPFEDLGAQLVKSVATKTNDVAGDGTTTATILAQALIKGGLRLVAAGVNPIALGVGIGKAADAVSEALLASATPVSGKTGIAQVATVSSRDEQIGDLVGEAMSKVGHDGVVSVEESSTLGTELEFTEGIGFDKGFLSAYFVTDFDNQQAVLEDALILLHQDKISSLPDLLPLLEKVAGTGKPLLIVAEDVEGEALATLVVNAIRKTLKAVAVKGPYFGDRRKAFLEDLAVVTGGQVVNPDAGMVLREVGLEVLGSARRVVVSKDDTVIVDGGGTAEAVANRAKHLRAEIDKSDSDWDREKLGERLAKLAGGVAVIKVGAATETALKERKESVEDAVAAAKAAVEEGIVPGGGASLIHQARKALTELRASLTGDEVLGVDVFSEALAAPLFWIAANAGLDGSVVVNKVSELPAGHGLNVNTLSYGDLAADGVIDPVKVTRSAVLNASSVARMVLTTETVVVDKPAKAEDHDHHHGHAH
IL12 production induced by LPS [5]: inhibited
TNF-alpha secretion in the lungs (LPS-treated mice; intranasal 1 μg/ml for 3 days, LPS 1 μg/ml, lavage 24 hours later, FIG. 24): not significantly attenuated
LPS-induced neutrophilia (neutrophils recovered from lavage) (LPS-treated mice; intranasal 1 μg/ml for 3 days, LPS 1 μg/ml, lavage at 24 hours, FIG. 24): reduced LPS-induced neutrophilia; also recorded: suppression in neutrophilia
neutrophil recruitment with the substance alone (LPS-treated mice; no LPS, FIG. 23): No neutrophil recruitment
effect of polymyxin B pre-treatment on suppression of neutrophil recruitment (LPS-treated mice; polymyxin B (5 μg/ml)): made no difference
IL-12 release ([3]; 0.001-30 μg/ml, 24 h, polymixin B 5 μg/ml): induce IL-12 release
recruitment of total cells to the airways ([4]; […]): significantly inhibited
recruitment of total cells to the airways ([4]; […], listed as Cpn60): inhibited
recruitment of eosinophils to the airways ([4]; […]): significant reduction
recruitment of eosinophils to the airways ([4]; […], listed as Cpn60): inhibited
levels of IL-5 in BAL fluid ([4]; mouse, in vivo): not significantly inhibited; also recorded: not caused by an interference with the production of IL-5
UV burn-induced hyperalgesia (mechanical and thermal) (UV-treated rats): little effect
CFA-induced hyperalgesia (mechanical and thermal) (CFA-treated rats): Neither dose of Cpn60.1 reduced CFA-induced hyperalgesia
levels of IL4 in DC/T cell co-culture ([6]; […]): suppressed
IL-12 response of TLR2KO spleen cells [10]: refractory
IL12 production by dendritic cells [7]: produced IL12 in a dose-dependant manner; also recorded: induced the release of IL-12 in a dose dependent-manner
IL-12 response of TLR4KO spleen cells compared to wild type C57bl/6 [11]: reduced response; also recorded: significantly refractory
lung inflammation in a murine model of asthma [1]: suppressed
TNF-alpha release induced by LPS, percent of control values ([8]; Cpn60.1 vs Cpn60.1 peptides, FIG. 21): suppress
concentration of maximum inhibition of LPS-induced TNF-α secretion ([8]; although not significant, FIG. 18): 1 ng/mL
TNF-alpha secretion induced by the substance alone ([8]; no LPS): able to stimulate human monocytes to induce TNF-alpha secretion
LPS-induced TNF-alpha secretion in the presence of polymyxin-B ([8]; polymyxin-B 5 μg/ml, FIG. 19): suppresses
LPS-induced TNF-alpha secretion [8]: suppresses; also recorded: inhibited TNF-alpha secretion at low doses
bronchial hyper-responsiveness to methacholine [2]: reduced; also recorded: significantly inhibit
levels of cytokines in BAL fluid (cytokine release in the lung) [2]: inhibited; also recorded: significantly inhibit
recruitment of eosinophils to the airways (airways inflammation) [2]: inhibited; also recorded: significantly inhibit

From patent publication US9085632B2, “Biological materials and uses thereof” (PEPTINNOVATE LIMITED, priority 2008, dated 2015)
